# Values quoted from earlier work in patent publication US6823267B2, “Structural prediction of allosterism” (The Johns Hopkins University, priority 2000, dated 2004).
# Target: glycerol kinase (Escherichia coli, UniProt P0A6F3)
# Conditions: at 25° C.
# glycerol kinase, sequence (P0A6F3 whole entry): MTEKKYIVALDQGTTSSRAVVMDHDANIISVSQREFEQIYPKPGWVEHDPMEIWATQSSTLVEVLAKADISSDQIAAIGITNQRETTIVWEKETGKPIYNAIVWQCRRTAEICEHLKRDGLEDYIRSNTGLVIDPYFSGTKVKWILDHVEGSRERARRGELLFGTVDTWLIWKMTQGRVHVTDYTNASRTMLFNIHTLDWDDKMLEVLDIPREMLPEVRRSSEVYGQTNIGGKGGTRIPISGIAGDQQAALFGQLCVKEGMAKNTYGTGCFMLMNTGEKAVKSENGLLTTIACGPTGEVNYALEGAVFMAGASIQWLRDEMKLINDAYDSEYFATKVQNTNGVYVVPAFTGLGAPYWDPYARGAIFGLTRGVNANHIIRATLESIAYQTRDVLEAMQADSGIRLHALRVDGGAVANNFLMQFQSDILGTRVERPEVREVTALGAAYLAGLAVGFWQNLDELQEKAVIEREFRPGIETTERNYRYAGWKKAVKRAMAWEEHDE
molecule,measurement,value
"IIAGlc: protein that is an allosteric inhibitor of the enzyme glycerol kinase (protein, UniProt P69783 2-169, looked up) PTS system glucose-specific …: GLFDKLKSLVSDDKKDTGTIEIIAPLSGEIVNIEDVPDVVFAEKIVGDGIAIKPTGNKMVAPVDGTIGKIFETNHAFSIESDSGVELFVHFGIDTVELKGEGFKRIAEEGQRVKVGDTVIEFDLPLLEEKAKSTLTPVVISNMDEIKELIKLSGSVTVGETPVIRIKK",association constant of IIAGlc to glycerol kinase,~10^5 M^−1
